Reference: PMC9745668 (ACS chemical biology, 2021)

T1: IPK from Candidatus methanomethylophilus alvus (CMA) (Methanomethylophilus alvi, UniProt M9SEQ1)
T1 sequence (M9SEQ1 1-259): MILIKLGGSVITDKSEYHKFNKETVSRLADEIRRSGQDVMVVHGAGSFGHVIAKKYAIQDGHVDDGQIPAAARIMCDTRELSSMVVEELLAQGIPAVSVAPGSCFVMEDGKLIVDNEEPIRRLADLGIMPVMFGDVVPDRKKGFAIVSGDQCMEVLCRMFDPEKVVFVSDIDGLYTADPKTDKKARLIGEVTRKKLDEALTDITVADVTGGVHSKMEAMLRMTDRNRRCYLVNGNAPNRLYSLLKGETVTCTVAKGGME


How the values were obtained:
[1] = target: T1, IPK from Candidatus methanomethylophilus alvus (CMA); assay: X-ray crystal structure, […] Å; type: binding; conditions: alkyl-P site, monomer A, partial occupancy with IP
[2] = substrate: C=C(C)CCOP(=O)(O)O; assay: PK-LDH coupled assay, A340; type: biochemical, Methanomethylophilus alvi; conditions: 2 mM ATP, 5 mM MgCl2, 25 mM Tris pH 7.8, 37 °C
[3] = substrate: Cc1ccc(COP(=O)(O)O)cc1; assay: PK-LDH coupled assay, A340; type: biochemical, Methanomethylophilus alvi; conditions: 2 mM ATP, 5 mM MgCl2, 25 mM Tris pH 7.8, 37 °C
[4] = substrate: O=P(O)(O)OCc1ccccc1; assay: PK-LDH coupled assay, A340; type: biochemical, Methanomethylophilus alvi; conditions: 2 mM ATP, 5 mM MgCl2, 25 mM Tris pH 7.8, 37 °C

Molecule | X-ray crystal structure, 2.5 Å [1] | Km [2] | kcat [2] | kcat/Km [2] | Km [3] | kcat [3] | kcat/Km [3] | Km [4] | kcat [4] | kcat/Km [4]
C=C(C)CCOP(=O)(O)OP(=O)(O)O [IPP] | electron density for both pairs of reagents (IP/ATP and IPP/ADP) can be modeled | – | – | – | – | – | – | – | – | –
IPK from Candidatus methanomethylophilus alvus (CMA) (Candidatus Methanomethylophilus alvi Mx1201; I74A) (protein) MILIKLGGSVITDKSEYHKFNKETVSRLADEIRRSGQDVMVVHGAGSFGHVIAKKYAIQDGHVDDGQIPAAARAMCDTRELSSMVVEELLAQGIPAVSVAPGSCFVMEDGKLIVDNEEPIRRLADLGIMPVMFGDVVPDRKKGFAIVSGDQCMEVLCRMFDPEKVVFVSDIDGLYTADPKTDKKARLIGEVTRKKLDEALTDITVADVTGGVHSKMEAMLRMTDRNRRCYLVNGNAPNRLYSLLKGETVTCTVAKGGME | – | 220 ± 20 µM | 42 ± 2 s⁻¹ | 190000 M⁻¹ s⁻¹ | 80 ± 20 µM | 1.05 ± 0.07 s⁻¹ | 13000 M⁻¹ s⁻¹ | 110 ± 30 µM | 0.41 ± 0.02 s⁻¹ | 4000 M⁻¹ s⁻¹
IPK from Candidatus methanomethylophilus alvus (CMA) (Candidatus Methanomethylophilus alvi Mx1201; I146A) (protein) MILIKLGGSVITDKSEYHKFNKETVSRLADEIRRSGQDVMVVHGAGSFGHVIAKKYAIQDGHVDDGQIPAAARIMCDTRELSSMVVEELLAQGIPAVSVAPGSCFVMEDGKLIVDNEEPIRRLADLGIMPVMFGDVVPDRKKGFAAVSGDQCMEVLCRMFDPEKVVFVSDIDGLYTADPKTDKKARLIGEVTRKKLDEALTDITVADVTGGVHSKMEAMLRMTDRNRRCYLVNGNAPNRLYSLLKGETVTCTVAKGGME | – | 160 ± 20 µM | 68 ± 2 s⁻¹ | 430000 M⁻¹ s⁻¹ | – | – | – | – | – | –
IPK from Candidatus methanomethylophilus alvus (CMA) (Candidatus Methanomethylophilus alvi Mx1201; V208A) (protein) MILIKLGGSVITDKSEYHKFNKETVSRLADEIRRSGQDVMVVHGAGSFGHVIAKKYAIQDGHVDDGQIPAAARIMCDTRELSSMVVEELLAQGIPAVSVAPGSCFVMEDGKLIVDNEEPIRRLADLGIMPVMFGDVVPDRKKGFAIVSGDQCMEVLCRMFDPEKVVFVSDIDGLYTADPKTDKKARLIGEVTRKKLDEALTDITVADATGGVHSKMEAMLRMTDRNRRCYLVNGNAPNRLYSLLKGETVTCTVAKGGME | – | 75 ± 10 µM | 5.4 ± 0.1 s⁻¹ | 72000 M⁻¹ s⁻¹ | – | – | – | – | – | –
IPK from Candidatus methanomethylophilus alvus (CMA) (Candidatus Methanomethylophilus alvi Mx1201; T209A) (protein) MILIKLGGSVITDKSEYHKFNKETVSRLADEIRRSGQDVMVVHGAGSFGHVIAKKYAIQDGHVDDGQIPAAARIMCDTRELSSMVVEELLAQGIPAVSVAPGSCFVMEDGKLIVDNEEPIRRLADLGIMPVMFGDVVPDRKKGFAIVSGDQCMEVLCRMFDPEKVVFVSDIDGLYTADPKTDKKARLIGEVTRKKLDEALTDITVADVAGGVHSKMEAMLRMTDRNRRCYLVNGNAPNRLYSLLKGETVTCTVAKGGME | – | 50 ± 20 µM | 0.038 ± 0.002 s⁻¹ | 800 M⁻¹ s⁻¹ | – | – | – | – | – | –
IPK from Candidatus methanomethylophilus alvus (CMA) (Candidatus Methanomethylophilus alvi Mx1201; T209S) (protein) MILIKLGGSVITDKSEYHKFNKETVSRLADEIRRSGQDVMVVHGAGSFGHVIAKKYAIQDGHVDDGQIPAAARIMCDTRELSSMVVEELLAQGIPAVSVAPGSCFVMEDGKLIVDNEEPIRRLADLGIMPVMFGDVVPDRKKGFAIVSGDQCMEVLCRMFDPEKVVFVSDIDGLYTADPKTDKKARLIGEVTRKKLDEALTDITVADVSGGVHSKMEAMLRMTDRNRRCYLVNGNAPNRLYSLLKGETVTCTVAKGGME | – | 37 ± 8 µM | 7.2 ± 0.3 s⁻¹ | 200000 M⁻¹ s⁻¹ | – | – | – | – | – | –
IPK from Candidatus methanomethylophilus alvus (CMA) (Candidatus Methanomethylophilus alvi Mx1201; I74A/V208A) (protein) MILIKLGGSVITDKSEYHKFNKETVSRLADEIRRSGQDVMVVHGAGSFGHVIAKKYAIQDGHVDDGQIPAAARAMCDTRELSSMVVEELLAQGIPAVSVAPGSCFVMEDGKLIVDNEEPIRRLADLGIMPVMFGDVVPDRKKGFAIVSGDQCMEVLCRMFDPEKVVFVSDIDGLYTADPKTDKKARLIGEVTRKKLDEALTDITVADATGGVHSKMEAMLRMTDRNRRCYLVNGNAPNRLYSLLKGETVTCTVAKGGME | – | 750 ± 80 µM | 4.9 ± 0.2 s⁻¹ | 6500 M⁻¹ s⁻¹ | – | – | – | – | – | –
